From PMC4939597, “Mechanism for insulin-like peptide 5 distinguishing the homologous relaxin family peptide receptor 3 and 4” (Scientific Reports, 2016) come the findings set out here.

In assay [1] the target is T1, human RXFP3 (Homo sapiens, UniProt Q9NSD7).
T1 construct: expressed in transfected cells; host or cells: HEK293T
T1 sequence (Q9NSD7 1-469): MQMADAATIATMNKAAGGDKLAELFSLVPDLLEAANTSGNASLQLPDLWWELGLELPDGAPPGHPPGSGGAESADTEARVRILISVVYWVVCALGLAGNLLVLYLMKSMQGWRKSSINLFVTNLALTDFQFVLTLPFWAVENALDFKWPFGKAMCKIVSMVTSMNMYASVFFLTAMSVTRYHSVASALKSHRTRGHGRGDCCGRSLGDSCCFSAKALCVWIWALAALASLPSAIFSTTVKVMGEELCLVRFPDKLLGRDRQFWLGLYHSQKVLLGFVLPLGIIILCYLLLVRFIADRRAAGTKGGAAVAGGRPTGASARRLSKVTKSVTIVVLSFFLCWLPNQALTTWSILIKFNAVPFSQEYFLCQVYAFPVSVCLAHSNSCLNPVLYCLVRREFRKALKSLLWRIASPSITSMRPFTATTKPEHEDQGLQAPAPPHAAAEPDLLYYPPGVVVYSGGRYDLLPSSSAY
Briefly: Receptor binding assay, competition with NanoLuc-conjugated R3/I5 tracer. The conditions noted are these: for pIC50 RXFP3: HEK293T cells transiently overexpressing human RXFP3, 0.5 nM NanoLuc-conjugated R3/I5 tracer, 21 °C, 2 h, mean ± SE, n = 3, SEM. Summed up: (§1)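 HEK293T cells transiently expressing human RXFP3 or RXFP4 were incubated with 0.5 nM NanoLuc-conjugated R3/I5 tracer plus competitor in serum-free DMEM with 1% BSA, 2 h at 21 °C. Nonspecific binding used 1.0 μM human relaxin-3. After washing and lysis, bioluminescence was read and curves fitted sigmoidally (n = 3).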

For assay [2], the target named is T2, human RXFP4 (Homo sapiens, UniProt Q8TDU9).
T2 construct: expressed in transfected cells; host or cells: HEK293T
The description is as above. Particulars: for pIC50 RXFP4: HEK293T cells transiently overexpressing human RXFP4, 0.5 nM NanoLuc-conjugated R3/I5 tracer, 21 °C, 2 h, mean ± SE, n = 3, SEM. In short, it runs like this:
as §1

Assay [3] addresses T1, human RXFP3. Briefly: Receptor activation assay, CRE-controlled NanoLuc reporter. The format is cell-based.
Assay [4] deals with T2, human RXFP4. The assay is described as above. Particulars: for pEC50 RXFP4: HEK293T cells cotransfected with human RXFP4 and CRE-controlled NanoLuc reporter, 1.0 μM forskolin, 37 °C, 4 h, mean ± SE, n = 3, SEM. The format is cell-based.

No end group written: not given here.

T2 sequence (Q8TDU9 whole entry): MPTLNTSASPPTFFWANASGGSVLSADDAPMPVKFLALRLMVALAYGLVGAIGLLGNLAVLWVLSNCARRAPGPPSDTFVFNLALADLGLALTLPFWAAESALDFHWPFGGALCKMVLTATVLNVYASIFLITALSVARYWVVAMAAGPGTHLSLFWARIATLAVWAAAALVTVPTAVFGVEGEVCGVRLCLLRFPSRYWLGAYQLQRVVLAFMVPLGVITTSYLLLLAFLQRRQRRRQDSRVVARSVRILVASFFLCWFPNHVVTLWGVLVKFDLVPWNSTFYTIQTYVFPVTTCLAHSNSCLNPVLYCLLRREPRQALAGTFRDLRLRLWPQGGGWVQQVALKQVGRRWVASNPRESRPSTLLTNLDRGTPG

Turning to “[A(B20)G,S(B21)G]INSL5: recombinant mature two-chain INSL5 mutant (Insulin-like peptide INSL5 B … KESVRLCGLEYIRTVIYICGGSRW; Insulin-like peptide INSL5 A … QDLQTLCCTDGCSMTDLSALC; not fully specified; ends and bridges not checked; UniProt Q9Y5Q6 23-46; Q9Y5Q6 115-135, looked up, variant A20G S21G)”, in the assay with human RXFP3 [1], the “pIC50 RXFP3” value was found to be 6.01 ± 0.06. In addition, the “fold lower binding potency towards RXFP3 compared with wild-type INSL5” value with human RXFP3 [1] (lower than wild-type INSL5) is reported as ~ 18 fold. In addition, in the assay with human RXFP4 [2], the “pIC50 RXFP4” value stood at 6.39 ± 0.05. Further, the “fold lower binding potency towards RXFP4 compared with wild-type INSL5” value in the assay with human RXFP4 [2] (lower than wild-type INSL5) is ~ 23 fold. Further, the “pEC50 RXFP3” value with human RXFP3 [3] (HEK293T cells cotransfected with human RXFP3 and CRE-controlled NanoLuc reporter, 1.0 μM forskolin, 37 °C, 4 h, mean ± SE, n = 3, N.D., not detectable, SEM) was determined as 6.90 ± 0.04. The “fold lower activation potency towards RXFP3 than relaxin-3” value with human RXFP3 [3] (lower than relaxin-3) is ~ 5000 fold. Further, in the assay with human RXFP4 [4], the “pEC50 RXFP4” value was 8.59 ± 0.05. In the assay with human RXFP4 [4] (lower than wild-type INSL5), the “fold lower activation potency towards RXFP4 compared with INSL5” value is listed as ~ 6 fold.
Consider “[I(B18)T]INSL5: recombinant mature two-chain INSL5 mutant (Insulin-like peptide INSL5 B … KESVRLCGLEYIRTVIYTCASSRW; Insulin-like peptide INSL5 A … QDLQTLCCTDGCSMTDLSALC; ends and bridges not checked; cysteine pairing not given here; UniProt Q9Y5Q6 23-46; Q9Y5Q6 115-135, looked up, variant I18T)”, for which the “pIC50 RXFP3” value with human RXFP3 [1] was determined as 7.07 ± 0.04. Also, the “pIC50 RXFP4” value with human RXFP4 [2] came to 7.43 ± 0.05. Moreover, the “activation potency towards RXFP3, result in words” value in the assay with human RXFP3 [3] (CRE-controlled NanoLuc reporter, HEK293T cells, human RXFP3) is reported as “no detectable activation potency”. The “pEC50 RXFP4” value in the assay with human RXFP4 [4] was found to be 9.31 ± 0.08.
